The numbers were not newly measured in paper PMC9539805, which cites them from elsewhere.

A word on the Kd: it is the equilibrium constant for the complex coming apart.

Data set [1] addresses spike protein (SARS-CoV-2) (UniProt P0DTC2).
Data set [2] has as its target spike protein RBD (SARS-CoV-2) (UniProt P0DTC2).

Take CV-N (from UniProt P81180): the equilibrium dissociation constant (Kd) in data set [1] was 18.6 µM; in data set [2], 260 µM.
